Data from publication PMC9482650, “Quantitative fragmentomics allow affinity mapping of interactomes” (Nature Communications, 2022).

T1: CARD11, Q9BXL7
T1 sequence (Q9BXL7 662-765, limits assumed, looked up): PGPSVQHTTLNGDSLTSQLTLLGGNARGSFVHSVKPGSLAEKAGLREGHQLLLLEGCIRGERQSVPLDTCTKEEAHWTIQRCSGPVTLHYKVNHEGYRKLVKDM

T2: GRIP1_4, Q9Y3R0
T2 sequence (Q9Y3R0 467-571, limits assumed, looked up): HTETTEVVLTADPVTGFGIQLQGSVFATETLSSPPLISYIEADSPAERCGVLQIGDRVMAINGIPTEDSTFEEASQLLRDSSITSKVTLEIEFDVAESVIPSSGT

T3: LIN7C, Q9NUP9
T3 sequence (Q9NUP9 88-185, limits assumed, looked up): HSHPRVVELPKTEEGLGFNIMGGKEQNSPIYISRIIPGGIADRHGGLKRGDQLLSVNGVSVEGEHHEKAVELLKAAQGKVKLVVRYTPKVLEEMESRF

T4: MPDZ_12, O75970
T4 sequence (O75970 1857-1958, limits assumed, looked up): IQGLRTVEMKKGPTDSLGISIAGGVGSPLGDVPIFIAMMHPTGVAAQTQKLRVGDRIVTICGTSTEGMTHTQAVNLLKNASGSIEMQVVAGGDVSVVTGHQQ

T5: PARD3B_1, Q8TEW8
T5 sequence (Q8TEW8 196-299, limits assumed, looked up): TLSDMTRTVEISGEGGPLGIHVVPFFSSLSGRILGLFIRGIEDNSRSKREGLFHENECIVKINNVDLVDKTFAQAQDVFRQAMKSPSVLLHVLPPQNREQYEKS

T6: RHPN1, Q8TCX5
T6 sequence (Q8TCX5 508-602, limits assumed, looked up): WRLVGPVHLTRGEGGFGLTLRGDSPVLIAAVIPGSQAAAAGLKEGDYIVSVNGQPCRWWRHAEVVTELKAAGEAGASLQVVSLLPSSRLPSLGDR

T7: SHANK1, Q9Y566
T7 sequence (Q9Y566 658-767, limits assumed, looked up): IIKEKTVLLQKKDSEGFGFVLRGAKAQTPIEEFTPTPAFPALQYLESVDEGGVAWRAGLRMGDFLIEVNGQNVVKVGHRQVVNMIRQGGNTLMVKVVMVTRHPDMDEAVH

T8: SIPA1L2, Q9P2F8
T8 sequence (Q9P2F8 945-1036, limits assumed, looked up): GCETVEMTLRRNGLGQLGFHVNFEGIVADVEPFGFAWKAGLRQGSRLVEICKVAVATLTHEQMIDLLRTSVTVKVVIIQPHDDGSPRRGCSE


Columns and labels:
Assay in all cases: holdup assay
Set-up in all cases: key: below the threshold = too weak to quantify, mostly under pKd 3.1 to 4
Conditions in all cases: plain residues with an end cap or a label only (N-terminal biotin on a linker: ado-ado)
[1] = biological target: T1, CARD11, Q9BXL7
[2] = biological target: DLG1_3, Q12959
Chain of DLG1_3, Q12959 (Q12959 457-571): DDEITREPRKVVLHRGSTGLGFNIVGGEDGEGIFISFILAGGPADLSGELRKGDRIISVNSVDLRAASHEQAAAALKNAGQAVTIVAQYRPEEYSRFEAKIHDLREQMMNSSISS

[3] = biological target: DLG4_1, P78352
Chain of DLG4_1, P78352 (P78352 62-152): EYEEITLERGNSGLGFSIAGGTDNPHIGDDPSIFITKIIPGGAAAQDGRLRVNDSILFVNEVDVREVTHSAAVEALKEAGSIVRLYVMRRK

[4] = biological target: FRMPD2_2, Q68DX3
Chain of FRMPD2_2, Q68DX3 (Q68DX3 944-1038): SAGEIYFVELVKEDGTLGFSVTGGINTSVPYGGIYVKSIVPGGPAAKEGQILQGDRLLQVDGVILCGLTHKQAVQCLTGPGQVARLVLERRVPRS

[5] = biological target: FRMPD4, Q14CM0
Chain of FRMPD4, Q14CM0 (Q14CM0 67-160): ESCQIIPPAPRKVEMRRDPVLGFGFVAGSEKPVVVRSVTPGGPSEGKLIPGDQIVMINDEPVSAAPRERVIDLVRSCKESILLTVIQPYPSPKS

[6] = biological target: GORASP1, Q9BQQ3
Chain of GORASP1, Q9BQQ3 (Q9BQQ3 1-208): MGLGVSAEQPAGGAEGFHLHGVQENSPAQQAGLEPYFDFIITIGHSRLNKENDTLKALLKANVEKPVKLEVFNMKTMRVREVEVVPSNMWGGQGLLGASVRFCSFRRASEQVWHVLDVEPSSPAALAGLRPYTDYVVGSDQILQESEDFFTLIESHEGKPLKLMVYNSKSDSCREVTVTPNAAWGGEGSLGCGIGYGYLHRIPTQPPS

[7] = biological target: GRID2IP_2, A4D2P6
Chain of GRID2IP_2, A4D2P6 (A4D2P6 272-370): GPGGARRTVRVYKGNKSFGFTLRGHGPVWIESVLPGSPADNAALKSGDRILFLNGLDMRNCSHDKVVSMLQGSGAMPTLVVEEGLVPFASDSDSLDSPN

[8] = biological target: T2, GRIP1_4, Q9Y3R0
[9] = biological target: GRIP2_4, Q9C0E4
Chain of GRIP2_4, Q9C0E4 (Q9C0E4 446-548): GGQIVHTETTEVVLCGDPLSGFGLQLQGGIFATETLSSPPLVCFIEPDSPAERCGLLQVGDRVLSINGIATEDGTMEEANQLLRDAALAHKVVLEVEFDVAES

[10] = biological target: HTRA2, O43464
Chain of HTRA2, O43464 (O43464 355-458): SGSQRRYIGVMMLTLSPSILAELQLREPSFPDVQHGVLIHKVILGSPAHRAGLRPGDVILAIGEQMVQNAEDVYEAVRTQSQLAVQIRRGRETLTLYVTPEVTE

[11] = biological target: Inadl_1, Q8NI35
Chain of Inadl_1, Q8NI35 (Q8NI35 113-229): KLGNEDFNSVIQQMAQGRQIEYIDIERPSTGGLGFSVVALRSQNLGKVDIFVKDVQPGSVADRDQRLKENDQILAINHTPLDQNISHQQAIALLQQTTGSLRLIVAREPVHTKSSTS

[12] = biological target: Inadl_2, Q8NI35
Chain of Inadl_2, Q8NI35 (Q8NI35 238-335): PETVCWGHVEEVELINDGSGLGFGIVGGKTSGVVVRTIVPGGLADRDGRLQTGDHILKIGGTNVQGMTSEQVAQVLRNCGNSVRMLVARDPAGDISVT

[13] = biological target: Inadl_6, Q8NI35
Chain of Inadl_6, Q8NI35 (Q8NI35 1058-1167): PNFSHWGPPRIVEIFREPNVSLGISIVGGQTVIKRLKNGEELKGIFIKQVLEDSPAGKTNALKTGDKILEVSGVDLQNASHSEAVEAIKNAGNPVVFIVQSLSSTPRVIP

[14] = biological target: LDB3, O75112
Chain of LDB3, O75112 (O75112 1-94): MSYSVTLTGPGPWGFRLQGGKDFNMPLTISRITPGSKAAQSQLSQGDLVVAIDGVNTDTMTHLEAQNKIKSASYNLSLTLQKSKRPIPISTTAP

[15] = biological target: T3, LIN7C, Q9NUP9
[16] = biological target: LNX1_3, Q8TBB1
Chain of LNX1_3, Q8TBB1 (Q8TBB1 500-596): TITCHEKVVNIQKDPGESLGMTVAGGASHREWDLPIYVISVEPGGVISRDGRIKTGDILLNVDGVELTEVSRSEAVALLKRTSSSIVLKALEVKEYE

[17] = biological target: MAGI2_6, Q86UL8
Chain of MAGI2_6, Q86UL8 (Q86UL8 1141-1229): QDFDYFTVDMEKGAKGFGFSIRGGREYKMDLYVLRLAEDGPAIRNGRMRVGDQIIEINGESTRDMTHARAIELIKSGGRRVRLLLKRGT

[18] = biological target: T4, MPDZ_12, O75970
[19] = biological target: NHERF2_2, Q15599
Chain of NHERF2_2, Q15599 (Q15599 142-238): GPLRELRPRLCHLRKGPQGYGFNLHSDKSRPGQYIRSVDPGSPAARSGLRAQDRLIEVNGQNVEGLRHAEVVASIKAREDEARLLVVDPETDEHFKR

[20] = biological target: NHERF4_1, Q86UT5-2
Chain of NHERF4_1, Q86UT5-2 (Q86UT5 other isoform, or with tags, fused parts or gaps): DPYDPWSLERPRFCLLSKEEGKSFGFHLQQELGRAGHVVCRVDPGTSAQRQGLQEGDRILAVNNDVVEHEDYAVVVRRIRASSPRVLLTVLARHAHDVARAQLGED

[21] = biological target: T5, PARD3B_1, Q8TEW8
[22] = biological target: PTPN3, P26045
Chain of PTPN3, P26045 (P26045 505-587): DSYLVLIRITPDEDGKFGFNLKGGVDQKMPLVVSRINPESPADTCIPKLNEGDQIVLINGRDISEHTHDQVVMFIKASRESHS

[23] = biological target: T6, RHPN1, Q8TCX5
[24] = biological target: SCRIB_3, Q14160
Chain of SCRIB_3, Q14160 (Q14160 999-1103): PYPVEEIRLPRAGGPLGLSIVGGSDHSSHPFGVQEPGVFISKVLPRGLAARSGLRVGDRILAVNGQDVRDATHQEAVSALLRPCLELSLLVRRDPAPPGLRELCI

[25] = biological target: T7, SHANK1, Q9Y566
[26] = biological target: T8, SIPA1L2, Q9P2F8
[27] = biological target: SNX27, Q96L92
[28] = biological target: MAGI2_2, Q86UL8
Chain of MAGI2_2, Q86UL8 (Q86UL8 410-522): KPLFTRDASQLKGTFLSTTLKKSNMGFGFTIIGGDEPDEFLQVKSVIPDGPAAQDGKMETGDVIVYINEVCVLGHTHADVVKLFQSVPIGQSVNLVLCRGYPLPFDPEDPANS

[29] = biological target: NHERF4_4, Q86UT5
Chain of NHERF4_4, Q86UT5 (Q86UT5 464-550): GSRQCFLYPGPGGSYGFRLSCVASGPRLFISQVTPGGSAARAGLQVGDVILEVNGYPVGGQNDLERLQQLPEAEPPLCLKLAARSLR

Row | Binder | pKd [1] | pKd [2] | pKd [3] | pKd [4] | pKd [6] | pKd [7] | pKd [8] | pKd [9] | pKd [10] | pKd [11] | pKd [12] | pKd [13] | pKd [14] | pKd [15] | pKd [16] | pKd [17] | pKd [18] | pKd [19] | pKd [20] | pKd [22] | other results
1 | VKQYADVEGF [HNRNPK, P61978;P61978-2] | below the threshold | below the threshold | below the threshold | below the threshold | below the threshold | below the threshold | below the threshold | below the threshold | below the threshold | below the threshold | below the threshold | below the threshold | below the threshold | 4.03 | below the threshold | below the threshold | below the threshold | below the threshold | 3.99 | 3.93 | pKd [5]: below the threshold; pKd [21]: below the threshold; pKd [23]: below the threshold; pKd [24]: below the threshold; pKd [25]: below the threshold; pKd [26]: below the threshold; pKd [27]: below the threshold
2 | NTALVESEDL [PALLS, Q8WX93;Q8WX93-1] | below the threshold | below the threshold | below the threshold | below the threshold | below the threshold | below the threshold | below the threshold | below the threshold | below the threshold | below the threshold | below the threshold | below the threshold | 5.16 | below the threshold | below the threshold | 4.01 | below the threshold | 4.64 | below the threshold | 4.33 | pKd [28]: below the threshold; pKd [29]: below the threshold; pKd [23]: below the threshold; pKd [25]: below the threshold; pKd [26]: below the threshold; pKd [27]: 4.38
3 | SKQFDKNAYV [CLDN10, P78369] | below the threshold | below the threshold | below the threshold | below the threshold | below the threshold | below the threshold | below the threshold | below the threshold | below the threshold | below the threshold | below the threshold | below the threshold | below the threshold | below the threshold | below the threshold | below the threshold | below the threshold | below the threshold | below the threshold | below the threshold | pKd [5]: 3.59; pKd [28]: below the threshold; pKd [29]: below the threshold; pKd [21]: 3.97; pKd [23]: 3.57; pKd [24]: below the threshold; pKd [25]: below the threshold; pKd [26]: below the threshold; pKd [27]: 3.78

Second part, led by results:

Row | pKd [1] | pKd [2] | pKd [3] | pKd [4] | pKd [6] | pKd [7] | pKd [8] | pKd [9] | pKd [10] | pKd [11] | pKd [12] | pKd [13] | pKd [14] | pKd [15] | pKd [16] | pKd [17] | pKd [18] | pKd [19] | pKd [20] | pKd [22] | Binder | other results
4 | below the threshold | below the threshold | below the threshold | below the threshold | below the threshold | 4.31 | below the threshold | below the threshold | below the threshold | below the threshold | below the threshold | below the threshold | below the threshold | below the threshold | below the threshold | below the threshold | below the threshold | 4.94 | 3.75 | below the threshold | PAALPESTHM [SLC9A3, P48764] | pKd [5]: below the threshold; pKd [28]: below the threshold; pKd [29]: below the threshold; pKd [21]: 3.6; pKd [23]: below the threshold; pKd [24]: 3.55; pKd [25]: 4.78; pKd [26]: below the threshold; pKd [27]: below the threshold
5 | below the threshold | 3.6 | below the threshold | below the threshold | below the threshold | below the threshold | below the threshold | below the threshold | below the threshold | below the threshold | below the threshold | below the threshold | 3.55 | 4.01 | below the threshold | 4 | below the threshold | 5.04 | 3.67 | 4.84 | VYEVPVETKF [SLC26A3, P40879] | pKd [5]: 3.65; pKd [28]: below the threshold; pKd [29]: below the threshold; pKd [21]: 4.19; pKd [23]: 4.03; pKd [24]: 4.44; pKd [25]: 4.63; pKd [26]: below the threshold; pKd [27]: 5.33
